Measurements taken from paper PMC5436742, “Structural models of the different trimers present in the core of phycobilisomes from Gracilaria chilensis based on crystal structures and sequences” (PLoS ONE, 2017).

Target: the molecule itself
Assay: SEC; 50 μL of 1 mg/mL purified APC on Superdex200 HR/30, 5 mM phosphate buffer pH7, 0.5 ml/min, calibrated with BioRad standards, elution followed at 651 and 280 nm

B1: Allophycocyanin αβ heterodimer from Gracilaria chilensis (complex)
chain 1: MSIITKSIVNADAEARYLSPGELDRIKSFVLSGQRRLRIAQILTDNRELIVKQGGQQLFQKRPDVVSPGGNAYGEEMTATCLRDLDYYLRLVTYGIVAGDVTPIEEIGLVGVKEMYNSLGTPISGVAEGVRSMKNVACSLLAGEDSAEAGFYFDYTLGAMQ
chain 2: MQDAITSVINAADVQGRYLDDNSLDKLRGYFQTGELRVRASATIAANAATIIKDSVAKALLYSDITRPGGNMYTTRRYAACIRDLDYYLRYATYGMLAGDPSILDERVLNGLKETYNSLGVPIGATIQAVQAMKEVTSSLVGPDAGKEMGVYFDYICSGLS
modifications: phycocyanobilin bound to cysteine 81 | phycocyanobilin bound to cysteine 81; methyl-Asn71 (Asm71)
notes: Allophycocyanin α subunit (gene apcA), Gracilaria chilensis; 161 residues; as the chain of m1; Allophycocyanin β subunit (gene apcB), Gracilaria chilensis; as the chain of m2; The αβ heterodimer is the unit that associates with itself into the trimer (αβ)3; also called APC; heterodimer αβ; source: purified from Gracilaria chilensis (method in S4 File)
- stoichiometry N: 3
